Measured values reported in patent US20220380801A1, “TRIPARTITE SYSTEMS FOR PROTEIN DIMERIZATION AND METHODS OF USE” (priority 2019, published 2022).

Target: DBD-FKBP12 (three tandem copies) (UniProt P62942)
Test: cell-based or functional assay

Sequence of DBD-FKBP12 (three tandem copies) (P62942 other isoform, or with tags, fused parts or gaps limits assumed): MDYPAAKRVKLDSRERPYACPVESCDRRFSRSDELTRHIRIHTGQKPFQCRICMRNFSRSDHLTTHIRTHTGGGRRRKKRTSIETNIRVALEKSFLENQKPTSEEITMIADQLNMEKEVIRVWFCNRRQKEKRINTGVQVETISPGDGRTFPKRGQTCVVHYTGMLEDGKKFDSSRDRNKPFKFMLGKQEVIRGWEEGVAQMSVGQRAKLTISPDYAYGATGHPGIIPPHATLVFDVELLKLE

Q: For FRB-AD (from UniProt P42345 2021-2113), which fold increase of luciferase expression, split transcription factor, rapalog is on record?
A: 30 fold
